Residue numbers refer to the chain shown, from its start.

The chains are these.
B1: Ab2-7 IgG (antibody, V domains shown)
VH: QVTLKESGPTRVKPTQTLTLTCTFSGFSLSTTGVGVGWIRQPPGKALEWLALIYWNDDKRYSPSLKSRLTITKDTSKNQVVLTMTNMDPVDTATYYCARISGSGYFYPFDIWGQGTTVTVSS
VL: NFMLTQPHSVSESPGKTVTISCTRSSGSIASNYVQWYQQRPGSSPTTVIYEDNQRPSGVPDRFSGSIDSSSNSASLTISGLKAEDEADYYCQSYDSSSLWVFGGGTKLTVL
B2: Ab_17 scFv-Fc (scFv, V domains shown)
VH: QVQLVQSGGGVVQPGRSLRLSCAASGFTFDDYAMHWVRQVPGKGLEWVSGIDWNSGVIGYADSVKGRFTISRDNVKNSLYLQMNSLRTEDSALYYCAKDIGPGGSGSYYAFDIWGQGTTVTVSS
VL: QSALTQPASVSGSPGQSITISCTGTSSDVGGSKYVSWYQQHPGKAPKVMIYDVTKRPSGVPDRFSGSKSGNTASLTISGLQAEDEADYYCAAWDDSLNGVVFGGGTKLTVL
B3: RBD-R3-E1-B3 Ab (Ab_32) scFv-Fc (scFv, V domains shown)
VH: QVQLVQSGAEVKKPGESLKISCKGSGYSFTSYWIGWVRQMPGKGLEWMGIIYPGDSDTRYSPSFQGQVTISADKSISTAYLQWSSLKASDTAMYYCARGWQWHDYWGQGTLVTVSS
VL: QTVVTQEPAVSVALGQTVRITCQGDSLRSYYASWYQQKPGQAPVLVVYDKDKRPSGIPDRFSGSTSGNTASLTITGAQAEDEADYYCNSRDRSDNHVVFGGGTKLTVL
B4: Ab_23 scFv-Fc (scFv, V domains shown)
VH: EVQLVQSGAEVKKPGSSVKVSCRSSGGTFSTYGITWVRQAPGQGLEWMGRIIPSLGIPNYAQKFQGRVTITADTSVSTAWMELSSLESDDTAIYYCARENIDLATNDFWGQGTLVTVSS
VL: QSALTQPPSASGSPGQSVTISCTGTSRDIGAYGYVSWYQQVPGKAPKLIIYEVRNRPSGVSSRFSGSKSGNTASLTISGLQAEDEADYYCSSYTSSSTLDVVFGGGTKLTVL
B5: Ab_14 scFv-Fc (scFv, V domains shown)
VH: QVQLQQSGPGLVKPSQTLSLTCAISGDSVSSNSAAWNWIRQSPARGLEWLGRTYYRSRWYNDYAISMKSRITINPDTSKNQFSLQLESVTPEDTAVYYCAREIRGFDYWGQGTLVTVSS
VL: QSVLTQPPSASGSPGQSVTISCTGTSSDVGAYNFVSWYQHHPGKAPKLIIYDFNKRPSGVPDRFSGSKSGNTASLTVSGLQADDEADYYCSSYAGSNNFDVVFGGGTKLTVL
B6: Ab_21 scFv-Fc (scFv, V domains shown)
VH: QVQLVQSGGGLVQPGGSLRLSCATSGFTFDDYAMHWVRQAPGKGLEWVSGISWNSGSIGYVDSVKGRFTISRDNRNNKVYLQMNNLRAEDTAVYYCARDWWGSIDHWGLGTLVTVSS
VL: QSALTQPRSVSGSPGQSVTISCTGTSSDVGGYDYVSWYQQHPGKAPKLIIYDVSKRPSGVPDRFSGSKSGNTASLTVSGLQAEDEADYYCSSYTSSSPVVFGGGTKLTVL
B7: Ab_18 scFv-Fc (scFv, V domains shown)
VH: EVQLVQSGGGVVQPGRSLRVSCAASGFSFSRYGMHWVRQAPGKGLEWVAFIRHDGSKKYYADSVEGRFTISRDNSRNTVSLEMNSLRGEDTAVYYCAKDGRLEAALDDWGQGTLVTVSS
VL: NFMLTQPHSMSGSAGKTVTVSCIRSSGSIANNFVQWYQQRPGSAPTTVIYEDNQRPSGVPDRFSGSIDSSSNSASLTISGLKTEDEADYYCQSYDSSNLVFGGGTRLTVL
B8: RBD-R3-E1-A5 Ab (Ab_30) scFv-Fc (scFv, V domains shown)
VH: QVQLVQSGGGVVQPGKSLRLSCTASGFTFSDFPIHWVRQAPGKGLEWVGVISYDGNIKYYGDSVKGRFTISRDNAKNSLYLQMNSLRVEDTAVYYCARGGSSFDIWGQGTTVTVSS
VL: SYELTQPPSVSEAPRQRVTISCSGSTSNIGNNAVSWYQHLPGKAPKLLIYYNERLPSGVSDRFSGSKSGTSASLAISGLRSEDEADYYCAAWDDSLSGHVVFGGGTKLTVL
B9: Ab_26 scFv-Fc (scFv, V domains shown)
VH: QVQLVQSGGGLVQPGRSLRLSCAASGFTFDDYAMHWVRQVPGKGLEWVSGIDWNSGVIGYADSVKGRFTISRDNAKNSLYLQMNSLRAEDTALYYCAKDAYSYGFLGAFDIWGQGTMVTVSS
VL: LPVLTQPPSVSVAPGQTASITCGGDNIRTKGVHWYQQKPGQAPLLVIYYASDRPSGIPERFSGSSSGNTATLTISRVEAGDEADYYCQVWDSSSDLVVFGGGTTLTVL
B10: Ab_19 scFv-Fc (scFv, V domains shown)
VH: EVQLVESGAEVKKPGESLKISCKGSGYSFTSYWIGWVRQMPGKGLEWMGIIYPGDSDTRYSPSFQGQVTISADKSISTAYLQWSSLKASDTAMYYCARRGDLDAFDIWGQGTMVTVSS
VL: QPGLTQPPAASGTPGQRVTVSCSGASANIGSNAVSWFKQFPETAPRLLISGNTHRPSGVPDRVSGSKSGTSASLTISGLQSDDEADYYCAAWDDSLNGYVFGSGTKVTVL
B11: S1-R3-T1-C4 (Ab_8) scFv-Fc (scFv, V domains shown)
VH: QVQLVQSGAEVKKPGSSVKVSCKASGGTFSSYAISWLRQAPGQGLEWMGWINPNSGGTNYAQKFQGRVTMTRDTSISTAYMELSRLRSDDTAVYYCARGSGGYYLGWGQGTLVTVSS
VL: QPGLTQPPSVSKGLRQTATLTCTGNSNNVGNQGAAWLQQHQGHPPKLLSYMNNNRPPGISERFSASRSGNTASLTITGLQPEDEADYYCSAWDSSLSRWVFGGGTKLSVL
B12: Ab_13 scFv-Fc (scFv, V domains shown)
VH: B1 VH with T10K, R11L, T32S, N56D, T72A, N78Y, T117M, S122A
VL: B1 VL with S44A, A83T, S98N
B13: Ab_20 scFv-Fc (scFv, V domains shown)
VH: QVQLVQSGGGSVKPGGSLRLSCAASGYRLSDYYMHWVRQAPGKGLEWVANIKQDGSEKYYVDSVKGRFTISRDNAKNSLYLQMNSLRAEDTAVYYCARVRGWSRGYFDYWGQGTLVTVSS
VL: B1 VL with R24G, S44A, T77L, A83T, S98N, L99H
B14: S1-RBD-R3-T1-C7 Ab (Ab_29) scFv-Fc (scFv, V domains shown)
VH: QVQLQQSGPGLVKPSQTLSLTCAISGDSVSSYSDAWNWIRQSPSRGLEWLGRTYYRSKWYNDYAVSVKSRITINPDTSKNQFSLQLSSVTPEDTAVYYCAREIVATTPFRNYYYGMDVWGQGTTVTVSS
VL: B1 VL with K16N, S25T, Y50F, E51Q, N53K, Q54L, A83T
B15: Ab_25 scFv-Fc (scFv, V domains shown)
VH: QVQLVQSGGGLVQPGGSLRLSCAASGFTFSSYWMSWVRQAPGKGLEWVANIKQDGSEKYYVDSVKGRFTISRDNAKNSLYLQMNSLRAEDTAVYYCARGFYYYGAFDIWGQGTTVTVSS
VL: B1 VL with R24G, S44A, D68G, A83T, S98N, L99H
B16: S1-RBD-R3-T1-F5 (Ab2-7) scFv-Fc (scFv, V domains shown)
VH: B1 VH
VL: B1 VL
B17: Ab_28 scFv-Fc (scFv, V domains shown)
VH: QVTLKESGPGLVNPSETLSLTCTVSGASISNSFWSWIRQSPGKGLEWIGYTSYSGNSIYNPSLKSRLTMSIDTSKNQLSLNLRSLTAADTAVYYCARREWIKGHFDYWGQGTLVTVSS
VL: B1 VL with R24G, S26G, S44A, A83T, S98N, L99P, W100V
B18: Ab_27 scFv-Fc (scFv, V domains shown)
VH: QVQLVQSGTEVKKPGASVKVSCKASGYSFTGSHLHWVRQAPGQGLEWMGWINPDSGVINYAQKFQGRVTLTRDTSISTAYMELSGLRSDDTAVYYCARDKAIGYVWALDYWGQGTLVTVSS
VL: QSALTQPPSVSGSPGQSVTISCTGTSSDVGTYNRVSWYQQPPGKAPKLMIYEVSNRPSGVSNRFSGSKSGNTASLTISGLQAEDEADYYCSSYTRTFTYVFGTGTKVTVL
B19: S1-RBD-R3-T1-B12 Ab (Ab_31) scFv-Fc (scFv, V domains shown)
VH: QVQLVQSGAEVKKPGSSVKVSCKASGGTFSSYTISWVRQAPGQGLEWMGGIIPILGTPNYAQKFQDRVAITADKSTSTAYMELSSLRSEDTAVYYCAVGSGWYSGFDYWGQGTLVTVSS
VL: NFMLTQPHSVSESPGKTVTISCTGSSGSIASNYVQWYQQRPGSAPTTVIYEDSQRPSGVPDRFSGSIDSSSNSASLTISGLKTEDEADYYCQSFHNSNPVIFGGGTKLTVL
B20: Ab_16 scFv-Fc (scFv, V domains shown)
VH: QVQLVQSGGGVVQPGRSLRLSCAASGFTFSNYGMHWVRQAPGKGLEWVALIWERGSKKDYADSVKGRFTVSRDNSKNTLYLQMNSLRPEDTAVYFCAREGISMTGAEYFQHWGQGTLVTVSS
VL: QSVLTQPPSVSGSPGQRVTMSCTGSSSNIGAGYDVHWYQQVPGAAPRLLIYGTNNRPSGVPDRFSGSKSGTSASLTITGLQAEDEADYYCQSYDNSLTDPYVFGTGTKVTVL

In the first test the target is SARS-CoV-2 spike trimer, soluble (SARS-CoV-2).
By Kd is commonly meant the concentration at which binding is half-saturated. Low values mean tighter binding, high ones weaker binding. Usually koff stands for the first-order rate constant of dissociation. A higher koff goes with fast dissociation. Usually kon stands for the rate constant with which the complex forms. Lower therefore signals slow association. B1 returned a Kd of under 1 pM, a koff of under 1e-07 s⁻¹ and a kon of 4.31e+07 M⁻¹ s⁻¹.

For another test, the target named is D614G Spike (SARS-CoV2).
The molecule B2 gave a Kd of 6.8 pM and a Response of 0.357.
In the case of B3, the dissociation constant Kd came out at 7.26 pM and the Response was 0.204.
B4 returned a Kd of 8.82 pM and a Response of 0.162.
Molecule B5 showed a Kd of 8.12 pM and a Response of 0.402.
For B6, in that order: 8 pM and 0.228.
The matching figures for B7: 6.33 pM and 0.291.
For B8, in that order: 7.43 pM and 0.179.
On to B9, for which the Kd came to 9.97 pM and the Response turned out to be 0.304.
The matching figures for B10: 10.9 pM and 0.237.
The matching figures for B11: 7.3 pM and 0.187.
B12 had an equilibrium dissociation constant (Kd) of 8.1 pM and a Response of 0.107.
For B13, in that order: 8.64 pM and 0.19.
The molecule B14 came in with a Kd of 1.04 pM and a Response of 0.202.
For B15, in that order: 8.56 pM and 0.0425.
In turn, B16 gave a Kd of 9.93 pM and a Response of 0.116.
The matching figures for B17: 9.41 pM and 0.199.
On to B18, for which the Kd worked out at 7.53 pM and the Response worked out at 0.276.
As to B19, the Kd is 9.03 pM and the Response turned out to be 0.168.
For B20, in that order: 8.35 pM and 0.434.

(Values after US20240409617A1.)
